Measured values reported in the DeepSol protein solubility set.

Experiment: soluble on expression in E. coli; label from the status in PepcDB or PDB records

| Sequence | soluble on expression in E. coli |
| --- | --- |
| MQLFDLSLEELKKYKPKKTARPDFSDFWKKSLEELRQVEAEPTLESYDYPVKGVKVYRLTYQSFGHSKIEGFYAVPDQTGPHPALVRFHGYNASYDGGIHDIVNWALHGYATFGMLVRGQGGSEDTSVTPGGHALGWMTKGILSKDTYYYRGVYLDAVRALEVIQSFPEVDEHRIGVIGGAQGGALAIAAAALSDIPKVVVADYPYLSNFERAVDVALEQPYLEINSYFRRNSDPKVEEKAFETLSYFDLINLAGWVKQPTLMAIGLIDKITPPSTVFAAYNHLETDKDLKVYRYFGHEFIPAFQTEKLSFLQKHLLLST | soluble |
| MQLKRKNSVFIDPRIQEVAGPCEPSDNGNNEEEDKIISIRATASSASITKESVPEAPPTHFIPVVVTVEPDAWEKFRDIIQVNRNIVIVKVGRWLMSSFMPGDQISLVNGTAIWNSDDLENQVRGPKKETKTEVTVIRVWNLKCLTDIQLDKLLVPPEEQLHYFSVKVYSSKGTIGLKLCLDKKRVLVELIRAKTPVNSALLVGDQILGINDELLTAKSKRALRKQVAEVMKKSIKKQGFAEIIACRQVIARSSPAPSLEAELSEKFANYAVGVEKGTRIEKKDSSETNSLPLHSDALEIALRELACLKQWIVESSTEVPPCDKGPTLMIDPPTAPGSAEGCPPPLVKAKSTTNAIERSVYFPLSTTAAVAILVSTPKKRSIFRQQDRNSAINFAEQPDHEKITSDIPEEDDLKKCEPMSGIAAYIKKKFN | not soluble |
| MQLQPFSQACENNKVPILAVLKSAFANTTRVLEIGSGTGQHAVYFATNLPQLFWQTSDQAEYLEGIKARCLLQGHQLGINNLGFPITLDVTAPWPVNGTHIDAVFSANTLHIMSKSMVEAFFNGLGEYLPQLNTLCIYGPFNYQGHYTSDSNRQFDHFLKQRDSESGIRDIEWIIALAQAQGLTLVEDIAMPTNNRLLHFKHLLALEHHHHHH | not soluble |
| MQMCFSKSAQHHSKVKQRNSLLEIMENCFEMMVARCIKIGTVQTLTMLGLLPEVVTISQAEDIYGKRLITEWREKAWIKFYPANNKERGKYYVKRSELETASAMMDLHNKVPDNIIKQLMQLTV | not soluble |
| MQNAEKLDFKITGGWIIDGTGAPRRRADLGVRDGRIAAIGELGAHPARHAWDASGKIVAPGFIDVHGHDDLMFVEKPDLRWKTSQGITTVVVGNCGVSAAPAPLPGNTAAALALLGETPLFADVPAYFAALDAQRPMINVAALVGHANLRLAAMRDPQAAPTAAEQQAMQDMLQAALEAGAVGFSTGLAYQPGAVAQAAELEGLARVAAERRRLHTSHIRNEADGVEAAVEEVLAIGRGTGCATVVSHHKCMMPQNWGRSRATLANIDRAREQGVEVALDIYPYPGSSTILIPERAETIDDIRITWSTPHPECSGEYLADIAARWGCDKTTAARRLAPAGAIYFAMDEDEVKRIFQHPCCMVGSDGLPNDARPHPRLWGSFTRVLGRYVREARLMTLEQAVARMTALPARVFGFAERGVLQPGAWADVVVFDPDTVADRATWDEPTLASVGIAGVLVNGAEVFPQPPADGRPGQVLRAGA | soluble |
| MQNISIAENNRTGIPVQSLSYEQAAKGPTGSIMTEGYAKAIANYAYVWGWPMVNMHNRREAFKQVPYQGYIGGAMPAAPINHLTMLSDYVSPNMRDVAHPNQDVVYGFGMLSLDKEPVVIQVPDFGDRFWTVMAEDQRTDSFAQLSSIYDSKPGFYMIVSPEWDGEIPEGINKVFRSSTDLAVVIPRVFMDDTAEDREAIQSVVNQLGAYPLSEFTGIMKITNWKSLPNIPEAKKTKSEKTWVNPNMFFSAEQLGKVLEEVSPLPGEEAMYAQFKELLLQAEENKELQKILNDVANEAEMNIVTPLFRLENVGKEINNYWTRPQDNGRFGTDYLTRLAVAKSNIFTNDVTETSYLYQYKDENGTRINGNHNYTLTFKKGELPPVDGFWSLTMYNSNHFFVPNDIKRYSIGTKNKGMKYNKDGSLTIYIQNEKPSEDKIGNWLPAPKDDIAMTIRAYGPKEEMLSGTWQPPAVVKIKLEHHHHHH | soluble |
| MQNNDFRTGSGSLKGSSTGVLKQFLFENVFICRIGVIKSFDFETQKGVVTIKEYEGLEISTCSISNFNFDLTAEDEVILLQSNFNIFQESDNNHFDKNYFYILSVLNPKKIGIRLDQFELSVQELGAQSENIKFKAKKLIIDVDNIEIKGNLKINGTKFENHMHSSGTLTYVNSSGVPTTTTGKTGPIA | soluble |
| MQPGGDMSALLAQAQQMQQKLLEAQQQLANSEVHGQAGGGLVKVVVKGSGEVIGVTIDPKVVDPDDIETLQDLIVGAMRDASQQVTKMAQERLGALAGAMRPPAPPAAPPGAPGMPGMPGMPGAPGAPPVPGI | not soluble |
| MQPIEFLEGGCLCGAIRYRIEGNPFDADYCHCRMCQKSIGAAFGAWMDFNVSQVTWLKGNVTEFASSDFVRRGFCAQCGCSLTYRHTEYPDYLTLTIASFDDPNLVQPNYHIYTEQQLSWLKIEDNCQRYPQARTK | soluble |
| MQPMTARFDLFVVGSGFFGLTIAERVATQLDKRVLVLERRPHIGGNAYSEAEPQTGIEVHKYGAHLFHTSNKRVWDYVRQFTDFTDYRHRVFAMHNGQAYQFPMGLGLVSQFFGKYFTPEQARQLIAEQAAEIDTADAQNLEEKAISLIGRPLYEAFVKGYTAKQWQTDPKELPAANITRLPVRYTFDNRYFSDTYEGLPTDGYTAWLQNMAADHRIEVRLNTDWFDVRGQLRPGSPAAPVVYTGPLDRYFDYAEGRLGWRTLDFEVEVLPIGDFQGTAVMNYNDLDVPYTRIHEFRHFHPERDYPTDKTVIMREYSRFAEDDDEPYYPINTEADRALLATYRARAKSETASSKVLFGGRLGTYQYLDMHMAIASALNMYDNVLAPHLRDGVPLLQDGA | soluble |
| MQPWQTDPTRAPVATKIVVAGGFGVGKTTLVTAVSEITPLQTEALMTEASEETDDLTATPGKLTTTVAMDFGRITLDDDLVLYLFGTPGQQRFWFMWDDLVRGAIGAVVLADTRRLKDCWPALDYFESCGLPYVVAVNHFDGSELFEAEDVREALTIPAHIPVMIMDARRRISAIETLLSLVGHALDETPELEHHHHHH | not soluble |
| MQQKLENIKFVITDVDGVLTDGQLHYDANGEAIKSFHVRDGLGIKMLMDADIQVAVLSGRDSPILRRRIADLGIKLFFLGKLEKETACFDLMKQAGVTAEQTAYIGDDSVDLPAFAACGTSFAVADAPIYVKNAVDHVLSTHGGKGAFREMSDMILQAQGKSSVFDTAQGFLKSVKSMGQLEHHHHHH | soluble |
| MQQVIPAPRVQVTQPYAGQKPGTSGLRKKVSEATQPNYLENFVQSIFNTLRKDELKPKNVLFVGGDGRYFNRQAIFSIIRLAYANDISEVHVGQAGLMSTPASSHYIRKVNEEVGNCIGGIILTASHNPGGKEHGDFGIKFNVRTGAPAPEDFTDQIYTHTTKIKEYLTVDYEFEKHINLDQIGVYKFEGTRLEKSHFEVKVVDTVQDYTQLMQKLFDFDLLKGLFSNKDFSFRFDGMHGVAGPYAKHIFGTLLGCSKESLLNCDPSEDFGGGHPDPNLTYAHDLVELLDIHKKKDVGTVPQFGAACDGDADRNMILGRQFFVTPSDSLAVIAANANLIFKNGLLGAARSMPTSGALDKVAAKNGIKLFETPTGWKFFGNLMDAGLINLCGEESFGTGSNHIREKDGIWAVLAWLTILAHKNKNTDHFVTVEEIVTQYWQQFGRNYYSRYDYEQVDSAGANKMMEHLKTKFQYFEQLKQGNKADIYDYVDPVDQSVSKNQGVRFVFGDGSRIIFRLSGTGSVGATIRIYFEQFEQQQIQHETATALANIIKLGLEISDIAQFTGRNEPTVIT | soluble |
| MQSITPPLIAVIGSDASGKSTVCEHLITVVEKYGAAERVHLGKQAGNVGRAVTKLPLMGKSLHKTIERNQVKTAKKLPGPVPALVITAFVARRLLRFRHMLACRRRGLIVLTDRYPQDQIPGAYDGTVFPPNVEGGRFVSWLASQERKAFHWMASHKPDLVIKLNVDLEVACARKPDHKRESLARKIAITPQLTFGGAQLVDIDANQPLEQVLVDAEKAITDFMTARGYH | not soluble |
| MQSQWCARQQDMIAVYGALAEQCDYALHLGLTEAGMGSKGIVASTAALAVLLFKGIGDTIRVSLTPEPGGDRAREVIVAQEILQTMGLRAFVPLVAACPGCGRTTSTYFQELAESIQIYVREQMVIWREQYEGVENMSLAVMGCVVNGPGESKHADIGISLPGSGETPVAPVFVDGQKTVTLKGDNIAGEFRMIVDEYVRTKYRKKAANALEHHHHHH | not soluble |
| MQSTIRKQLLQVFSEADGEFVSGQTISDKLGCSRTAVWKHMEDLRNEGYELEAVRRLGYRIASKPDKVTANEIQLGLQTKHIGRTVYFEESVESTQHIAAKLAYEGAEEGTIVVAEEQTAGRGRLSRKWHSPKGTGIWMSIILRPSIPVHHAPQLTLLAAVSVAQAIEKCTGVNVGIKWPNDILIQGKKAVGILTEMQADPDKINAVIMGIGINANQKQEHFDEEIQHIATSLAIESGKPIVRAELMQQIFLQLEKLYEEYLQNGFSVIKILWESYAVSIGKEINARTMRETITGVAKGITEDGVLLLEDHEGKVHHIHSADIEIK | not soluble |
| MQSTVAFISHRSTHKDFVRKIVDTVKRDNCIVDEFDFYPATKTVNEIVRNLNFAPIFVLLISKDALESDWIKLEMSKARQLYDTGVIREFMPFIIEEGVKLEELPSWMTRDWSLNIKTITSPKIIGQFIIETQRKIRCVGNNAYGNWINTFIGRSNELDEFQRAMYDSVYMPHRSLIVSGKPGSGRTRFIQKCIQDSSGLSFIPEGFQIKLPQKTYLDNFILQLHEGLGFSKASYEDILKLDHEHQITKCVSYINQIINAHSFLLIEDEMSFVSYDGTISEWGKEIISHPAMIDSLKIFISSRVKPRYSELRAYPQIIHINLSGFTKDERKRLFVNCCRYYNVQLNDSDVDFFVDRLQSSPQQLEQAVREIKDKNVRFAKKDIKNLIAIGDEVFSRVISWFKGDETALTLAKVLAEVDMISFDLLEQLYEEDYPKIEQLVNNFESLSILDFYGPGGNNISLDGGVSDYIRRSKLDLDPIMKTRIEEIIFNKIDTAEDDLGELSIFLHDLRKQLLSGKGFAYVMPSIVISTVIDLYNQGSYDSVKDICLHALEHCSSYTEEPLQELYYRLCQVLARMKDRIFFTYIDKIKDKGSKDFLYGFYYRYKEDYSKAEEYLLKALDFNSNMQIARRELVNVYLNQEKYTKALPLAKENYNRKSTNSYHIEAYFRCLLNHYPWNTETEDTLNRLLKEMEENFSKRKDELLASMQLEYFIKSRNHTKEEIKEKIQETLIVYPNSPQVYRIKEEFERDKSRFCKSCNC | not soluble |
| MQTLILMAYIKRLVSEGKHASLREAYYANKHTVPGTRENTFEDQSESDPIIEDLERMLGVLREEMHITADRRGYIYGDIVIKDGEDEFNASKLGTGGWAVPGTVEHIQFPEINVDYVLVVETAAMADRLIEEKYPKRENCLIVATQGQASRGVRRLIHRLHYEEGLPIIVFTDGDPYGWYIYSTIKRGSINLAYLSEKLATPDAKFVGMTMDDIKEYNLENVTEKLKGIPPDKKGGPTGDYKRLIEELNYPWFQDKEWQRQLKLALKWGVRIEQQALANKSLEFVAKEYLPEKIREGKLLP | soluble |
| MQTWQLPEHIADVLPTNARQLESAREQLLALFRVHGYELVQPPLMEYAHSLLTHIDAGLSLKTILVTDRLSGRQLGIRADITPQVARIDAHLLSANQGINRLCYAGPVLHAQPDGLLNMREPLQAGAEMYGFADIRGDIELIDLMLKSMKIADMGKVLLSLGHIGIFRALSDAAHLDAGQSATLLALMQDKDTGAVEAQVKAWKLDGMWAKAFSLLPRLYGGREVLSDARGRLPDLSAVGGALGELQAVCDAFPDCEIHIDLSELRVDNYHTGLLYAAYAADFHDAVARGGRYDGLGGYFGRARPATGFSFDLRSFIGRLPAIERQPAVLVDAEDAEAAHEAVEALREQGQCVVIDYGIGHNVSEELAGRLKKTDGVWQVVKR | not soluble |
